The test has as its target αCRP scFv-His6 (LA13-IIE3). Put plainly: BLI; αCRP scFv (2 μg/mL) immobilised on Octet Ni-NTA biosensors; CRP at 250, 125, 62.5, 15.6 and 7.8 nM; HBS Kinetics Buffer (1% heat-inactivated BSA, 0.2% Tween 20, 10 mM HEPES pH 7.4, 150 mM NaCl), 30 °C; two-state reaction model.

We go through 1 molecule from article PMC11934139.

B1: human C-reactive protein (natural protein)
chain: QTDMSRKAFVFPKESDTSYVSLKAPLTKPLKAFTVCLHFYTELSSTRGYSIFSYATKRQDNEILIFWSKDIGYSFTVGGSEILFEVPEVTVAPVHICTSWESASGIVEFWVDGKPRVRKSLKKGYTVGAEASIILGQEQDSFGGNFEGSQSLVGDIGNVNMWDFVLSPDEINTIYLGGPFSPNVLNWRALKYEVQGEVFTKPQLWP
As to B1, the Kd turned out to be 588 nM.
